In paper PMC10955041, “Reverse-engineering the anti-MUC1 antibody 139H2 by mass spectrometry–based de novo sequencing” (Life Science Alliance, 2024):
Ends that are not written are not given here. * marks the point of attachment. Biotin = O=C1N[C@H]2[C@H](CS[C@H]2CCCCC(=O)*)N1

B1: hybridoma-derived 139H2 IgG (antibody, V domains shown)
VH: QVQLQQSGAELVKPGASVKLSCKASGYTFTNYYMYWVLQRPGQGLEWIGEINPSNGGTTFNEKFKNKATLTVDKSSSTAYMQLNSLTSEDSAVYYCTRSRYGNYVNYGMDYWGQGTSVTVSS
VL: DIVMSQSPSSLAVSVGEKVTMSCKSSQSLLYSNTQKNYLAWYQQKPGQSPKLLIYWASTRESGVPDRFTGSGSGTDFTLTISSVKAENLAVYYCQQYYRYPPTFGGGTKLELK
notes: as the heavy-chain variable domain of m1 (IGHV1-53); as the light-chain variable domain of m1 (IGKV8-30); mouse kappa light-chain constant region; Mouse IgG1, kappa; also called original hybridoma-derived 139H2; 139H2 WT; source: hybridoma culture supernatant (gift, NKI), purified (Protein G Sepharose); copies: 2 + 2
B2: recombinant 139H2 Fab fragment (Fab, V domains shown)
VH: B1 VH
VL: B1 VL
notes: as the heavy-chain variable domain of m1 (IGHV1-53); mouse Ig gamma-1 (IGHG1) Fab constant region; as the light-chain variable domain of m1 (IGKV8-30); mouse kappa light-chain constant region, as in m1; also called monovalent Fab fragment; anti-MUC1 Fab; source: HEK293 cells (ImmunoPrecise Antibodies), culture supernatant, purified (HisTrap Excel, Superdex 200 SEC)
B3: recombinant (reverse-engineered) 139H2 IgG (antibody, V domains shown)
VH: B1 VH
VL: B1 VL
notes: also in PDB 8P6I; standard mouse Ig gamma-1 (IGHG1) constant region, linker and Fc region, UniProt P01868.1; mouse kappa light-chain constant region (kappa light-chain backbone); Mouse IgG1, kappa; also called synthetic recombinant 139H2; recombinant 139H2; source: HEK293 cells (ImmunoPrecise Antibodies), culture supernatant, purified (HisTrap Excel); copies: 2 + 2

Legend:
Conditions in all cases: both partners purified
[1] = molecular target: T1, MUC1 reporter construct, Tn glycans (Homo sapiens (by repeat sequence), UniProt P15941, O-glycans of Tn structure; 5 O-glycosylation sites); assay: far-Western, overlay or dot blot; immunoblot of MUC1 reporter constructs (10 ng per well, boiled in Laemmli buffer, 10% SDS gel, PVDF); 139H2 antibodies 1:1,000 in TSMT with 1% BSA, 1 h at RT; band intensities compared with a His-tag blot
T1 construct: also called MUC1 Tn fragment; MUC1-Tn; source: engineered HEK293 cells, gift from Christian Büll (Copenhagen Center for Glycomics), in PBS
T1 sequence (P15941 whole entry, looked up, the tested form may be a part): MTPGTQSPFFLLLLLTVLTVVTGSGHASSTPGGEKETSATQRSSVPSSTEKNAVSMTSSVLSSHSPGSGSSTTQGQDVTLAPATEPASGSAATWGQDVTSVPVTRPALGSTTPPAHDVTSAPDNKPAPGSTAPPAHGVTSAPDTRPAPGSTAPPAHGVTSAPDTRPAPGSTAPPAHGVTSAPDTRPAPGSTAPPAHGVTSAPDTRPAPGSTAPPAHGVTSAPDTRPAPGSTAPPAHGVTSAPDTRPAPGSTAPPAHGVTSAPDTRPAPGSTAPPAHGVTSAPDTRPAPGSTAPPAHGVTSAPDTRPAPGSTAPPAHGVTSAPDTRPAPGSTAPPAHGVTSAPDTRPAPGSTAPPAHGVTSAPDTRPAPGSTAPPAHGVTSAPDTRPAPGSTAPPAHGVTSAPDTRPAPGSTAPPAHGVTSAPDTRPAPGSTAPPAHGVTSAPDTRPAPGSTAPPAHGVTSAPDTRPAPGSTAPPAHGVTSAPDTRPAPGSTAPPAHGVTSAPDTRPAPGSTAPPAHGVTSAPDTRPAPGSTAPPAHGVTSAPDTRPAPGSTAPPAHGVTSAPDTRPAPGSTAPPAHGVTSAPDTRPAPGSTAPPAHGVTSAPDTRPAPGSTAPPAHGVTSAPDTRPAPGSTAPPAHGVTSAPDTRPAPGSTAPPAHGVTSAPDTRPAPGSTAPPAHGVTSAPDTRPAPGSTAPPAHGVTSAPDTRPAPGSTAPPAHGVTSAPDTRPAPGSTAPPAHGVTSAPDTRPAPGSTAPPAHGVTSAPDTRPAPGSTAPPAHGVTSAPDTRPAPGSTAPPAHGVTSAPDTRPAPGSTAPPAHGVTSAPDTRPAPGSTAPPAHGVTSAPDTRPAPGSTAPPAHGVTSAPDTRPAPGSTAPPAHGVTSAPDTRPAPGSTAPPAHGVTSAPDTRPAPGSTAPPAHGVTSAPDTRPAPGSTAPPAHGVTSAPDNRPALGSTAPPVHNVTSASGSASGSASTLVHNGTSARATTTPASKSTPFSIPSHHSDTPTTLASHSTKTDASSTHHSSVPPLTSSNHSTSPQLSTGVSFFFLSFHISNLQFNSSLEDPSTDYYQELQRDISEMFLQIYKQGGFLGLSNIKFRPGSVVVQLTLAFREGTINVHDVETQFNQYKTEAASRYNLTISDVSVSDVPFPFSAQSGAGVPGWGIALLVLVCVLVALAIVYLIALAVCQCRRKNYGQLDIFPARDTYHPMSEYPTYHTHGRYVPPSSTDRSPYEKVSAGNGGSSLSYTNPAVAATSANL

[2] = molecular target: T2, MUC1 reporter construct, WT Core 2/ST glycans (Homo sapiens (by repeat sequence), UniProt P15941, O-glycans of WT Core 2/ST structure; 5 O-glycosylation sites); assay: as above
T2 construct: also called MUC1 WT fragment; MUC1-WT; source: engineered HEK293 cells, gift from Christian Büll (Copenhagen Center for Glycomics), in PBS
T2 sequence (P15941 whole entry, looked up, the tested form may be a part): as above

[3] = molecular target: T3, MUC1 reporter construct, DiST glycans (Homo sapiens (by repeat sequence), UniProt P15941, O-glycans of DiST structure; 5 O-glycosylation sites); assay: as above
T3 construct: also called MUC1 DiST fragment; MUC1-DiST; source: engineered HEK293 cells, gift from Christian Büll (Copenhagen Center for Glycomics), in PBS
T3 sequence (P15941 whole entry, looked up, the tested form may be a part): as above

[4] = molecular target: T4, MUC1 reporter construct, STn glycans (Homo sapiens (by repeat sequence), UniProt P15941, O-glycans of STn structure; 5 O-glycosylation sites); assay: as above
T4 construct: also called MUC1 STn fragment; MUC1-STn; source: engineered HEK293 cells, gift from Christian Büll (Copenhagen Center for Glycomics), in PBS
T4 sequence (P15941 whole entry, looked up, the tested form may be a part): as above

[5] = molecular target: T5, synthetic MUC1 epitope peptide APDTRPAPG (synthetic; human MUC1 VNTR sequence); assay: crystal structure; Fab and peptide mixed 1:2.5, 3.8 mg/ml in 50 mM Tris pH 8.0, 150 mM NaCl; sitting drop at 20°C; 2.5 Å
T5 construct: also called MUC1 peptide; source: synthetic peptide, bought: GenScript
T5 chain: APDTRPAPG

[6] = molecular target: T6, N-terminally biotinylated synthetic MUC1 peptide biotin-GGS-APDTRPAPG (synthetic; human MUC1 VNTR sequence); assay: SPR; biotinylated peptide immobilised on a streptavidin chip (P-Strep), IBIS-MX96; 150 mM NaCl, 25 mM Hepes, 0.005% Tween-20; Fab as analyte, 10 twofold dilutions from 7.88 uM, kinetic titration without regeneration, 6-min association; equilibrium data fitted to a one-site (Langmuir) model
T6 construct: short peptide linker for immobilization to the SPR substrate; occurs in every repeat; also called biotinylated MUC1 peptide; surface-immobilized MUC1 peptide; source: synthetic peptide, bought: GenScript
T6 chain: Biotin-GGSAPDTRPAPG

Row | Binder | binding result [1] | binding result [2] | binding result [3] | binding result [4] | binding result [5] | Kd [6]
1 | B1 | binds | binds | binds | binds |  | 
2 | B2 |  |  |  |  | binds | 4.5 µM
3 | B3 | binds | binds | binds | binds |  | 
